The source of these data is PMC8358895 (Cell reports, 2021).

In this test the target is MBP-PLK1 (UniProt P53350 1-603). Description: pull-down.
Sequence of MBP-PLK1 (P53350 whole entry): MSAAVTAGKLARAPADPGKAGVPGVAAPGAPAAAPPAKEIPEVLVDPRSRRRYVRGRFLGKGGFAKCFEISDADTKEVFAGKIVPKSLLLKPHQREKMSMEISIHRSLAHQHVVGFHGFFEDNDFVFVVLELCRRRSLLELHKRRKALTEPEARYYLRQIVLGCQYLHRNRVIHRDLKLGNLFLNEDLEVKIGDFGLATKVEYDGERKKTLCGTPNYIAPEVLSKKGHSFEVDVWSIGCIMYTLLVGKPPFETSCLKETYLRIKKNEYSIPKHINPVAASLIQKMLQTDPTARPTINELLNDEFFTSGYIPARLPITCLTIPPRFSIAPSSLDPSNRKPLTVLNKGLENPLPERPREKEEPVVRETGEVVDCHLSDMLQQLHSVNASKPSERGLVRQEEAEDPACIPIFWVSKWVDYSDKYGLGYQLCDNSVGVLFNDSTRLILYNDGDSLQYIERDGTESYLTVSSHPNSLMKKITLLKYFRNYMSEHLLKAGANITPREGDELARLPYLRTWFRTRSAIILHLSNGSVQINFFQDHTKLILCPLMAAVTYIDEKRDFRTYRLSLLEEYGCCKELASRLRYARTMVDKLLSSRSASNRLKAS

B1: GST-Apolo1-N (domain or fragment)
chain: MFLPHMNHLTLEQTFFSQVLPKTVKLFDDMMYELTSQARGLSSQNLEIQTTLRNILQTMVQLLGALTGCVQHICATQESIILENIQSLPSSVLHIIKSTFVHCKNSESVYSGCLHLVSDLLQALFKEAYSLQKQLMELLDMVCMDPLVDDNDDILNMVIVIHSLLDICSVISSMDH
Take B1: the binding result is recorded as “binds”.
